Data as given in EP4717706A1.
Substitutions are numbered along the chain they refer to. Numbers in names are those of the source.

B1: AVR25c with G314D, V499I (receptor)
chain: MGSADESDQITLPKHEAQLKVYVLLVPPKGEASTYDWQLITHPRDYSGEMEGEHSQILKLSNLTPGLYEYRAVVEGQNAHSEGYVNVTVEPGPRKNRPPIAIVSPQFQEISLPTTSAVIDGSQSTDDDKIVQYHWEELKGPLREEKISEDTPILKLSNLVPGNYTFRLTVVDTDGATDSTTADLTVNKAIDHHHHHH
B2: AVR25c with F(Y)379N (receptor)
chain: B1 chain with D5G, Y70N, I190V
B3: AVR25c with E325V, D437V (receptor)
chain: B1 chain with D5G, E16V, D128V, I190V
B4: AVR25c with Q318R, E362D, E378G (receptor)
chain: B1 chain with D5G, Q9R, E53D, E69G, I190V
B5: AVR25c_T474R (AVR25c with T474R) (receptor)
chain: B1 chain with D5G, T165R, I190V
B6: AVR25c with E378G, V398A (receptor)
chain: B1 chain with D5G, E69G, V89A, I190V
B7: AVR25c with H363P, K497E (receptor)
chain: B1 chain with D5G, H54P, K188E, I190V
B8: AVR25c with Q415R, S457R (receptor)
chain: B1 chain with D5G, Q106R, S148R, I190V
B9: AVR25c with V(D)317G, T478I (receptor)
chain: B1 chain with D5G, D8G, T169I, I190V
B10: AVR25c with P322A, T350A, L421P (receptor)
chain: B1 chain with D5G, P13A, T41A, L112P, I190V
B11: AVR25c with R406H, F416L (receptor)
chain: B1 chain with D5G, R97H, F107L, I190V
B12: AVR25c with Q347R, T486A, D500G (receptor)
chain: B1 chain with D5G, Q38R, T177A, I190V, D191G
B13: AVR25c with G314D, E399K, E445K (receptor)
chain: B1 chain with E90K, E136K, I190V
B14: AVR25c with T434S (receptor)
chain: B1 chain with D5G, T125S, I190V
B15: AVR25c with G392E, S433G, A485V, L493M, N496D (receptor)
chain: B1 chain with D5G, G83E, S124G, A176V, L184M, N187D, I190V
B16: AVR26 (AVR21 with N329K, K338R, E401G, T426A, A461P) (receptor)
chain: B1 chain with D5G, K29R, N158Q, I190V
B17: AVR24b (AVR21 with K338R, T426A, A461P) (receptor)
chain: B1 chain with D5G, K20N, K29R, G92E, N158Q, I190V
B18: AVR24a (AVR21 with N329K, E401G, T426A) (receptor)
chain: B1 chain with D5G, P152A, N158Q, I190V
B19: AVR25b (AVR21 with K338R, E401G, T426A, A461P) (receptor)
chain: B1 chain with D5G, K20N, K29R, N158Q, I190V
B20: AVR21 with I319N, Y377F (receptor)
chain: B1 chain with D5G, I10N, K20N, Y68F, G92E, A117T, P152A, N158Q, I190V
B21: AVR21 with I366F, D435A (receptor)
chain: B1 chain with D5G, K20N, I57F, G92E, A117T, D126A, P152A, N158Q, I190V
B22: AVR21 with V412A (receptor)
chain: B1 chain with D5G, K20N, G92E, V103A, A117T, P152A, N158Q, I190V
B23: AVR21 with Q347K, N472K (receptor)
chain: B1 chain with D5G, K20N, Q38K, G92E, A117T, P152A, N158Q, N163K, I190V
B24: AVR21 with F(Y)379S (receptor)
chain: B1 chain with D5G, K20N, Y70S, G92E, A117T, P152A, N158Q, I190V
B25: AVR21 with L369S (receptor)
chain: B1 chain with D5G, K20N, L60S, G92E, A117T, P152A, N158Q, I190V
B26: AVR21 with L376P (receptor)
chain: B1 chain with D5G, K20N, L67P, G92E, A117T, P152A, N158Q, I190V
B27: AVR21 with L321Q, T343S (receptor)
chain: B1 chain with D5G, L12Q, K20N, T34S, G92E, A117T, P152A, N158Q, I190V
B28: AVR21 with L367P, V412A (receptor)
chain: B1 chain with D5G, K20N, L58P, G92E, V103A, A117T, P152A, N158Q, I190V
B29: AVR21 with E(V)335A (receptor)
chain: B1 chain with D5G, K20N, V26A, G92E, A117T, P152A, N158Q, I190V
B30: AVR21 with E360D, H389R (receptor)
chain: B1 chain with D5G, K20N, E51D, H80R, G92E, A117T, P152A, N158Q, I190V
B31: AVR21 with T343A, K(N)371D (receptor)
chain: B1 chain with D5G, K20N, T34A, N62D, G92E, A117T, P152A, N158Q, I190V
B32: AVR21 with L367P (receptor)
chain: B1 chain with D5G, K20N, L58P, G92E, A117T, P152A, N158Q, I190V
B33: AVR21 with N329S, K368R, V412A (receptor)
chain: B1 chain with D5G, K20S, K59R, G92E, V103A, A117T, P152A, N158Q, I190V
B34: AVR21 with L376P, P402S (receptor)
chain: B1 chain with D5G, K20N, L67P, G92E, P93S, A117T, P152A, N158Q, I190V
B35: AVR21 with T397A (receptor)
chain: B1 chain with D5G, K20N, T88A, G92E, A117T, P152A, N158Q, I190V
B36: AVR21 with E384D, V396E (receptor)
chain: B1 chain with D5G, K20N, E75D, V87E, G92E, A117T, P152A, N158Q, I190V
B37: AVR21 with D345G, E454D (receptor)
chain: B1 chain with D5G, K20N, D36G, G92E, A117T, E145D, P152A, N158Q, I190V
B38: AVR21 with N329K, E401G (receptor)
chain: B1 chain with D5G, A117T, P152A, N158Q, I190V
B39: AVR21 with Q365R, V(A)381T, K497E (receptor)
chain: B1 chain with D5G, K20N, Q56R, A72T, G92E, A117T, P152A, N158Q, K188E, I190V
B40: AVR21 with E340G (receptor)
chain: B1 chain with D5G, K20N, E31G, G92E, A117T, P152A, N158Q, I190V
B41: AVR21 with E(V)335A, V394I (receptor)
chain: B1 chain with D5G, K20N, V26A, V85I, G92E, A117T, P152A, N158Q, I190V
B42: AVR21 with V332A (receptor)
chain: B1 chain with D5G, K20N, V23A, G92E, A117T, P152A, N158Q, I190V
B43: AVR21 with T426A (receptor)
chain: B1 chain with D5G, K20N, G92E, P152A, N158Q, I190V
B44: AVR21 with E378G (receptor)
chain: B1 chain with D5G, K20N, E69G, G92E, A117T, P152A, N158Q, I190V
B45: AVR21 with T397S (receptor)
chain: B1 chain with D5G, K20N, T88S, G92E, A117T, P152A, N158Q, I190V
B46: AVR21 with L328P, V394A (receptor)
chain: B1 chain with D5G, L19P, K20N, V85A, G92E, A117T, P152A, N158Q, I190V
B47: AVR21 with D500N (receptor)
chain: B1 chain with D5G, K20N, G92E, A117T, P152A, N158Q, I190V, D191N
B48: AVR21 with L321Q (receptor)
chain: B1 chain with D5G, L12Q, K20N, G92E, A117T, P152A, N158Q, I190V
B49: AVR21 with K338R, A461P (receptor)
chain: B1 chain with D5G, K20N, K29R, G92E, A117T, N158Q, I190V
B50: AVR21 with I(V)382I (receptor)
chain: B1 chain with D5G, K20N, V73I, G92E, A117T, P152A, N158Q, I190V
B51: AVR21 with Y344F, T350A, Y377N (receptor)
chain: B1 chain with D5G, K20N, Y35F, T41A, Y68N, G92E, A117T, P152A, N158Q, I190V
B52: AVR21 with K(N)371S, E453D, S466T (receptor)
chain: B1 chain with D5G, K20N, N62S, G92E, A117T, E144D, P152A, S157T, N158Q, I190V

Target: VLP2 (virus-like particles, capsid protein particles of AAV serotype 2) (AAV serotype 2 (AAV2)) (UniProt P03135)
Chain of UniProt P03135 (P03135 whole entry): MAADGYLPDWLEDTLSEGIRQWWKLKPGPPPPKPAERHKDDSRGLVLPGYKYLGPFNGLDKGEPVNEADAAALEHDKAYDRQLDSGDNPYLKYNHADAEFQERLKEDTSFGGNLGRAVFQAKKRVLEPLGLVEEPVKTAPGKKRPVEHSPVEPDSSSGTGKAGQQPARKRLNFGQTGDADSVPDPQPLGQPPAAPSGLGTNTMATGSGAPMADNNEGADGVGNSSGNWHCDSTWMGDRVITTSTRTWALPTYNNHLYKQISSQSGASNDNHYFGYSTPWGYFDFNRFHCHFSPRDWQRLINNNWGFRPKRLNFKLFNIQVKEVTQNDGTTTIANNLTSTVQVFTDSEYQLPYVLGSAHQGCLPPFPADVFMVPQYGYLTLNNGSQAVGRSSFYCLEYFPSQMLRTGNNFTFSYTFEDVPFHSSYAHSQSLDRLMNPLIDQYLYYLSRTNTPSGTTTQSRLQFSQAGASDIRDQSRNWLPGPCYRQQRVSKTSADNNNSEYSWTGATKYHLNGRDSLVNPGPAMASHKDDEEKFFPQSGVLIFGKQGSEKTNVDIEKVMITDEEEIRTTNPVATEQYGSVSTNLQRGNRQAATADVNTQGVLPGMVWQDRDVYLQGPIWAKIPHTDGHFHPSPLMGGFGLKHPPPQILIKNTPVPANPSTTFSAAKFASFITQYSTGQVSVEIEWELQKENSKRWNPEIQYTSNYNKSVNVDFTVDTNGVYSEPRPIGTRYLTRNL
Assay: ELISA on immobilised VLP2 (culture supernatant); A450 after 1:1 1 M NaOH, 15 min, 30°C divided by A450 untreated

Compared with B1, B2 is lower in Remaining activity [%]: 79.1% for the first, 55.1% for the second.

First: B3
Second: B4
The Remaining activity [%] of the first is higher: 76.7% for the first, 66.1% for the second.

First: B5
Second: B6
The Remaining activity [%] of the first is higher: 100% for the first, 67.5% for the second.

Compared with B7, B8 is lower in Remaining activity [%]: 69.6% for the first, 55.1% for the second.

Going from B9 to B10, the Remaining activity [%] falls from 82% to 49.6%.

Going from B11 to B12, the Remaining activity [%] rises from 41.9% to 72.8%.

First: B13
Second: B14
The Remaining activity [%] of the first is lower: 62.5% for the first, 77.3% for the second.

With B15 the Remaining activity [%] was 61%.

Target: VLP2 (virus-like particles, capsid protein particles of AAV serotype 2) (AAV serotype 2 (AAV2)) (UniProt P03135)
Assay: ELISA on immobilised VLP2 (purified protein); A450 after 1:1 0.5 M NaOH, 30°C, 60 min divided by A450 at 0 time

First: B16
Second: B17
The Remaining activity [%] of the first is higher: 23.9% for the first, 17.6% for the second.

Going from B18 to B19, the Remaining activity [%] rises from 0.3% to 1.5%.

Target: VLP2 (virus-like particles, capsid protein particles of AAV serotype 2) (AAV serotype 2 (AAV2)) (UniProt P03135)
Assay: ELISA on immobilised VLP2 (culture supernatant, anti-His detection); A450 after 1:1 0.5 M NaOH, 30 min, 30°C divided by A450 untreated

Compared with B20, B21 is lower in Remaining activity [%]: 45.1% for the first, 38.4% for the second.

Compared with B22, B23 is higher in Remaining activity [%]: 32.5% for the first, 58.9% for the second.

First: B24
Second: B25
The Remaining activity [%] of the first is higher: 54.9% for the first, 51.4% for the second.

Compared with B26, B27 is higher in Remaining activity [%]: 42.6% for the first, 50.4% for the second.

B28 and B29 are the same in Remaining activity [%]: 35.8% for the first, 35.8% for the second.

Compared with B30, B31 is lower in Remaining activity [%]: 46.7% for the first, 40.5% for the second.

Compared with B32, B33 is higher in Remaining activity [%]: 35.7% for the first, 37.1% for the second.

Going from B34 to B35, the Remaining activity [%] rises from 35.1% to 40.4%.

Compared with B36, B37 is higher in Remaining activity [%]: 45.3% for the first, 61.7% for the second.

Going from B38 to B39, the Remaining activity [%] falls from 43.1% to 42%.

Going from B40 to B41, the Remaining activity [%] rises from 28.1% to 37.3%.

First: B42
Second: B43
The Remaining activity [%] of the first is higher: 57.6% for the first, 43.5% for the second.

Going from B44 to B45, the Remaining activity [%] falls from 58% to 38.4%.

Going from B46 to B47, the Remaining activity [%] falls from 40.5% to 39.3%.

Going from B48 to B49, the Remaining activity [%] rises from 34.2% to 36.4%.

Compared with B50, B51 is higher in Remaining activity [%]: 32.8% for the first, 34.4% for the second.

In the case of B52, the Remaining activity [%] is reported as 57.3%.

Target: VLP2 (virus-like particles, capsid protein particles of AAV serotype 2) (AAV serotype 2 (AAV2)) (UniProt P03135)
Assay: ELISA on immobilised VLP2 (purified protein); start of alkali treatment, the reference of the ratio

B16 and B17 are the same in Remaining activity [%]: 100% for the first, 100% for the second.

B18 and B19 are the same in Remaining activity [%]: 100% for the first, 100% for the second.

Target: VLP2 (virus-like particles, capsid protein particles of AAV serotype 2) (AAV serotype 2 (AAV2)) (UniProt P03135)
Assay: ELISA on immobilised VLP2 (purified protein); A450 after 1:1 0.5 M NaOH, 30°C, 30 min divided by A450 at 0 time

Going from B16 to B17, the Remaining activity [%] falls from 100% to 89.1%.

First: B18
Second: B19
The Remaining activity [%] of the first is lower: 37.6% for the first, 100% for the second.
